According to US20140356376:

Key:
[1] = tested on: thio-S4497 HC v1-MP-LAFG-PABC-(piperazinoBOR) AAC-193
[2] = tested on: thioFAB 4497 MP-LAFAA-QSY7
[3] = tested on: thioFAB 4497 MP-LAFGA-QSY7

staphopain B
100%: Percent cleavage pH 5 [1] | Percent cleavage pH 7.2 [1] | Percent cleavage pH 7.2 [2] | Percent cleavage pH 7.2 [3]
